The values that follow come from US20220403009A1.

For test [1], the target named is SARS-CoV-1 spike protein on HIV-based pseudovirus (SARS-CoV) (UniProt P59594). Nature of the test: cell-based or functional assay.
For test [2], the target named is SARS-CoV-2 spike protein on pseudovirus (SARS-CoV-2) (UniProt P0DTC2). As to the kind of experiment: cell-based or functional assay.

As for CR3014 IgG1 (antibody), in test [1], the Fold Over IgG1 (CoV-1) By Molar came to 1 fold; the Fold Over IgG1 (CoV-1) By Weight was found to be 1 fold; the IC50, SARS-CoV-1 pseudovirus neutralization amounted to 0.068 µg/mL. Also, the IC50, SARS-CoV-2 pseudovirus neutralization in test [2] was above 100000 µg/mL.
In test [1], CR3014 IgM + J (antibody) came in with a Fold Over IgG1 (CoV-1) By Molar above 80 fold; a Fold Over IgG1 (CoV-1) By Weight above 13 fold; an IC50, SARS-CoV-1 pseudovirus neutralization below 0.0051 µg/mL. Also, the IC50, SARS-CoV-2 pseudovirus neutralization in test [2] is above 100000 µg/mL.
